# B1: Cell division protein FtsZ (Escherichia coli (strain K12)), P0A9A6 (parent)
# chain: MFEPMELTNDAVIKVIGVGGGGGNAVEHMVRERIEGVEFFAVNTDAQALRKTAVGQTIQIGSGITKGLGAGANPEVGRNAADEDRDALRAALEGADMVFIAAGMGGGTGTGAAPVVAEVAKDLGILTVAVVTKPFNFEGKKRMAFAEQGITELSKHVDSLITIPNDKLLKVLGRGISLLDAFGAANDVLKGAVQGIAELITRPGLMNVDFADVRTVMSEMGYAMMGSGVASGEDRAEEAAEMAISSPLLEDIDLSGARGVLVNITAGFDLRLDEFETVGNTIRAFASDNATVVIGTSLDPDMNDELRVTVVATGIGMDKRPEITLVTNKQVQQPVMDRYQQHGMAPLTQEQKPVAKVVNDNAPQTAKEPDYLDIPAFLRKQAD
# partner: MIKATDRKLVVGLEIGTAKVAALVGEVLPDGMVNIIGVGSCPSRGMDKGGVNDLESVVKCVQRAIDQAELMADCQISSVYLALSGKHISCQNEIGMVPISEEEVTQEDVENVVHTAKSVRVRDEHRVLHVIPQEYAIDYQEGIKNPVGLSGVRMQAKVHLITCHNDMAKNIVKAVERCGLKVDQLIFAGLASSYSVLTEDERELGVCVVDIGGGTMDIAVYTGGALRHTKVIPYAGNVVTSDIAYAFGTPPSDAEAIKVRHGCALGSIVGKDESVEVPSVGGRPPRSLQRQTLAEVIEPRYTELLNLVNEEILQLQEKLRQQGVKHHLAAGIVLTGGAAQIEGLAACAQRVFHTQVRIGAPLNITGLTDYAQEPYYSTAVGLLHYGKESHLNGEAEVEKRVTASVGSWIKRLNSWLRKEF
# Variants of: B1
# Conditions: with ftsa_ecoli ftsA
row,effect of a mutation on the interaction,Variant
1,decreasing interaction strength,MFEPMELTNDAVIKVIGVGGGGGNAVEHMVRERIEGVEFFAVNTDAQALRKTAVGQTIQIGSGITKGLGAGANPEVGRNAADEDRDALRAALEGADMVFIAAGMGGGTGTGAAPVVAEVAKDLGILTVAVVTKPFNFEGKKRMAFAEQGITELSKHVDSLITIPNDKLLKVLGRGISLLDAFGAANDVLKGAVQGIAELITRPGLMNVDFADVRTVMSEMGYAMMGSGVASGEDRAEEAAEMAISSPLLEDIDLSGARGVLVNITAGFDLRLDEFETVGNTIRAFASDNATVVIGTSLDPDMNDELRVTVVATGIGMDKRPEITLVTNKQVQQPVMDRYQQHGMAPLTQEQKPVAKVVNDNAPQTAKEPDYLDVPAFLRKQAD [I374V]
